Assay in all cases: LC-MS/MS of proteins captured from pooled plasma by peptide-modified nanoparticles
One assay has as its target T1, A0A0C4DGL1.
T1 construct: Protein found in pooled plasma by LC-MS/MS; only the UniProt ID is printed
Here is the method: (§1) Provided herein are proteins that are captured by surfaces modified with peptides described herein. Briefly, surfaces are modified with the 10K-peptide-MaganinII. Pooled plasma samples containing proteins and the modified surfaces are combined and the surfaces are isolated and captured proteins are analyzed by liquid chromatography tandem mass spectrometry. The nanoparticle prepared in Example 5 was used and selected proteins that include those in Table 9. These proteins were captured by the peptide-modified surface, but not surfaces without peptide modification.

In the next assay the target is T2, E7EQ47.
T2 construct: Protein found in pooled plasma by LC-MS/MS; only the UniProt ID is printed
Here is the method: as §1

The next assay has as its target T3, F8W7Q4.
T3 construct: Protein found in pooled plasma by LC-MS/MS; only the UniProt ID is printed
Here is the method:
as §1

The next assay has as its target T4, A0A0C4DH33.
T4 construct: Protein found in pooled plasma by LC-MS/MS; only the UniProt ID is printed
Here is the method:
as §1

The next assay concerns the target T5, A0A075B6K0.
T5 construct: Protein found in pooled plasma by LC-MS/MS; only the UniProt ID is printed
Here is the method:
as §1

No end group written: not given here.

T5 sequence (A0A075B6K0 20-115): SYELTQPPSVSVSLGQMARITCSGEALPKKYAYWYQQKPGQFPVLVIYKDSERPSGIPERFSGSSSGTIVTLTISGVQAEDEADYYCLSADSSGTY
T4 sequence (A0A0C4DH33 20-117): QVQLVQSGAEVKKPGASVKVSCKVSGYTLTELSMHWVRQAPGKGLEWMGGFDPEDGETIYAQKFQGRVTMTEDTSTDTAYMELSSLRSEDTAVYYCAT

B1: 10K peptide-MaganinII coupled to Surface 428 nanoparticle (Surface 428-MaganinII) (peptide)
peptide: KKKKKKKKKKGIGKFLHSAKKFGKAFVGEIMNS
modifications: not fully specified; also: coupled through Sulfo-SMCC (maleimide) to thiols of Surface 428 nanoparticle, amine carrying SMCC not given here
notes: Many copies of the peptide stand on one nanoparticle; also called SMCC-MagaininII
Consider B1, for which the “Median Intensity” value with A0A0C4DGL1 stood at 3.62; in the assay with E7EQ47, 3.5; with F8W7Q4 it was 3.55; with A0A0C4DH33, 3.89; with A0A075B6K0, 3.81.

(Values after patent publication US20260056193A1 (SEER, published 2026).)
